B1: Wild-type short scaffold (DnaA-box#6/7 + DnaA-trios), oHM752/oHM590/oHM558 (dsDNA)
DNA 1: ACTTATCCACAAATCCACAGGCCC
DNA 2: TACTATTACTTCTACTA
DNA 3: TAGTAGAAGTAATAGTAGGGCCTGTGGATTTGTGGATAAGT
B2: ΔDnaA-boxes long scaffold, oHM753/oHM590/oHM754 (dsDNA)
DNA 1: CGTTCGGCTGCGGCGAGCGGTATCAGCTCACTCAAAGGCGGTAATACGGCTTCCTTGCTTCCTTGCGGCCC
DNA 2: TACTATTACTTCTACTA
DNA 3: TAGTAGAAGTAATAGTAGGGCCGCAAGGAAGCAAGGAAGCCGTATTACCGCCTTTGAGTGAGCTGATACCGCTCGCCGCAGCCGAACG

Experiments:
DnaA wild-type [1] = molecular target: T1, DnaA wild-type (Bacillus subtilis, UniProt P05648 1-446); test: EMSA; 1 mM ADP; single shifted species; EMSA: 25 nM scaffold, 0-250 nM DnaA, 10 mM HEPES-KOH pH 8, 100 mM potassium glutamate, 1 mM magnesium acetate, 30% glycerol, 10% DMSO, 1 mM ADP or ATP, 20°C 2 h; 6% PAGE in 45 mM Tris, 45 mM boric acid, 5 mM MgCl2; settings: protein: recombinant; tags: N-terminal His-tag removed with Factor Xa; label: 5' Cy3 on strand 1; 5' Cy5 on strand 2; blunt; 3 strands, nick between strands 1 and 2, both annealed to strand 3
DnaA I190A = DnaA I190A (Bacillus subtilis, UniProt P05648 1-446, I190A); test: EMSA; 1 mM ADP; shift similar to wild-type; EMSA: 25 nM scaffold, 0-250 nM DnaA, 10 mM HEPES-KOH pH 8, 100 mM potassium glutamate, 1 mM magnesium acetate, 30% glycerol, 10% DMSO, 1 mM ADP or ATP, 20°C 2 h; 6% PAGE in 45 mM Tris, 45 mM boric acid, 5 mM MgCl2; settings: protein: recombinant; tags: N-terminal His-tag removed with Factor Xa; label: 5' Cy3 on strand 1; 5' Cy5 on strand 2; blunt; 3 strands, nick between strands 1 and 2, both annealed to strand 3
DnaA wild-type [2] = molecular target: T1, DnaA wild-type; test: EMSA; 1 mM ADP; up to 250 nM DnaA; EMSA: 25 nM scaffold, 0-250 nM DnaA, 10 mM HEPES-KOH pH 8, 100 mM potassium glutamate, 1 mM magnesium acetate, 30% glycerol, 10% DMSO, 1 mM ADP or ATP, 20°C 2 h; 6% PAGE in 45 mM Tris, 45 mM boric acid, 5 mM MgCl2; settings: protein: recombinant; tags: N-terminal His-tag removed with Factor Xa; label: 5' Cy5 on strand 2; blunt; 3 strands, nick between strands 1 and 2, both annealed to strand 3

| Binder | binding result (DnaA wild-type [1]) | binding result (DnaA I190A) | binding result (DnaA wild-type [2]) |
| --- | --- | --- | --- |
| B1 | binds | binds | – |
| B2 | – | – | no binding |
